The source of these data is paper PMC10141234, “Adjusting Heterodimeric Coiled-Coils (K/E Zipper) to Connect Autophagy-Inducing Peptide with Cell-Penetrating Peptide” (Pharmaceutics, 2023).

A word on the Kd: it is a measure of binding affinity in units of concentration. One may read the stoichiometry N as the number of molecules, sites or subunits per partner or assembly.

The target of assay [1] is E2-CPP (Fam-labelled octaarginine cell-penetrating peptide with two EIAALEK units at its N-terminus). The following applies: scale: LC3-II/actin ratio.
Assay [2] deals with E3-CPP (Fam-labelled octaarginine cell-penetrating peptide with three EIAALEK units at its N-terminus). The following applies: scale: LC3-II/actin ratio.
The target is the same in assay [3]. The assay can be described thus: other fluorescence titration; En-CPP (Fam) fixed at 50 nM, AIP-Kn (Tmr) added to Tmr/Fam ratios 0-2.0; PBS pH 7.0, 25 °C; excitation 495 nm, Fam fluorescence at 525 nm quenched by FRET to Tmr; Kd by fit to equation (1), with the saturation intensity Fs taken from AIP-K4/E4-CPP.
For assay [4], the target named is E4-CPP (Fam-labelled octaarginine cell-penetrating peptide with four EIAALEK units at its N-terminus). The following applies: scale: LC3-II/actin ratio.
For assay [5] the target is unchanged. In words: other fluorescence titration; En-CPP (Fam) fixed at 50 nM, AIP-Kn (Tmr) added to Tmr/Fam ratios 0-2.0; PBS pH 7.0, 25 °C; excitation 495 nm, Fam fluorescence at 525 nm quenched by FRET to Tmr; Kd by fit to equation (1), with the saturation intensity Fs taken from AIP-K4/E4-CPP.
The next assay has as its system HeLa cells. In words: Intracellular delivery of K/E hybrids by confocal laser microscopy. It is filed as cell-based. The following applies: 10 μM equimolar AIP-Kn/En-CPP mixture, 1 h, 37 °C, conclusion from Fam/Tmr signals. The procedure: HeLa cells were cultured in DMEM supplemented with 10% heat-inactivated FBS in a 5% CO2 incubator at 37 °C. The HeLa cell line has been stocked and propagated in Dr. Masaaki Miyazawa’s laboratory.
AIP-Kn and En-CPP (n = 2, 3, and 4) were dissolved in DMSO at 10 mM each to make a stock peptide solution. The stock solution was diluted to the desired concentration using Opti-MEM. Equal volumes of the diluted AIP-Kn and En-CPP were mixed in a 1.5 mL tube for 1 h with rotation at room temperature to generate hybrids. For single-component controls (AIP-Kn or En-CPP only), equal volumes of the diluted AIP-Kn or En-CPP and Opti-MEM with DMSO, which was added instead of the stock peptide solution, were mixed in a 1.5 mL tube, and the mixture was then treated in a manner similar to that for the hybrid formation. […]
One day before peptide treatment, 1 × 10^5 cells in 2 mL of HeLa cells were seeded on a glass-bottomed dish (Matsunami Glass, Osaka, Japan) and cultured in a 5% CO2 incubator at 37 °C. […] After washing the cells, 2 mL of PBS was added and fluorescence signals from the cells were observed using a confocal laser microscope with a Plan Apo 60× oil-immersion DIC H objective (CLMS; C2si Ready; Nikon, Tokyo, Japan). Data were analyzed using NIS-Elements Advanced research software (Nikon).

Chain of E3-CPP (Fam-labelled octaarginine cell-penetrating peptide with three EIAALEK units at its N-terminus) (peptide, as listed by the source): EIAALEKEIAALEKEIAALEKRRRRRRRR
Chain of E4-CPP (Fam-labelled octaarginine cell-penetrating peptide with four EIAALEK units at its N-terminus) (peptide, as listed by the source): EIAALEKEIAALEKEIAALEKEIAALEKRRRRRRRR
Chain of E2-CPP (Fam-labelled octaarginine cell-penetrating peptide with two EIAALEK units at its N-terminus) (peptide, as listed by the source): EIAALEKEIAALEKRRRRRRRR

With “AIP-K2 (Tmr-labelled autophagy-inducing peptide with two KIAALKE units at its C-terminus)”, in assay [1], the autophagy induction in HeLa cells, LC3-II/actin ratio by immunoblot, 10 μM, 3 h, relative to AIP-K3/E3-CPP is 0.08.

In the case of “AIP-K3 (Tmr-labelled autophagy-inducing peptide with three KIAALKE units at its C-terminus)”, in assay [2], the autophagy induction in HeLa cells, LC3-II/actin ratio by immunoblot, 10 μM, 3 h, the reference of the ratio came to 1. In addition, in assay [3], the Kd was 20 nM and the stoichiometry N came to 1.

As to “AIP-K4 (Tmr-labelled autophagy-inducing peptide with four KIAALKE units at its C-terminus)”, in assay [4], the autophagy induction in HeLa cells, LC3-II/actin ratio by immunoblot, 10 μM, 3 h, relative to AIP-K3/E3-CPP came to 0.59. In assay [5], the Kd was 2 nM and the stoichiometry N stood at 1.

On to “Fam-(EIAALEK)2-RRRRRRRR [E2-CPP, octaarginine modified with (EIAALEK)2 at its N-terminus, labeled with fluorescein]”, for which the “intracellular delivery (translocation into cells)” value in the assay with HeLa cells is “alone translocates across the plasma membrane”.
